The Human Domainome abundance scans (Beltran et al. 2025)
± gives the uncertainty stated by the source.

B1: POU domain, class 3, transcription factor 1, residues 247 to 324; numbered along this chain, Q03052 (parent)
chain: EDAPSSDDLEQFAKQFKQRRIKLGFTQADVGLALGTLYGNVFSQTTICRFEALQLSFKNMCKLKPLLNKWLEETDSSS

Variants of: B1
Assay: abundance fitness (aPCA) (normalised: wild type 0, dead -1); higher = more abundant; growth selection in yeast, the domain comes from the species named
Conditions: Homo sapiens

Question: With EDAPSSDDLEQFAKQFKQRRIKLGFTQADVGLAKGTLYGNVFSQTTICRFEALQLSFKNMCKLKPLLNKWLEETDSSS [L34K] as the variant, how does the abundance fitness read?
Answer: -0.698 ± 0.28

Question: For EDAPSSDDLEQFAKQFKQRRIKLGFTQADVGLAGGTLYGNVFSQTTICRFEALQLSFKNMCKLKPLLNKWLEETDSSS [L34G], which abundance fitness is on record?
Answer: -0.866 ± 0.12

Question: With EDAPSSDDLEQFAKQFKQRRIKLGFTQADVGLADGTLYGNVFSQTTICRFEALQLSFKNMCKLKPLLNKWLEETDSSS [L34D] as the variant, how does the abundance fitness read?
Answer: -0.415 ± 0.21

Question: With EDAPSSDDLEQFAKQFKQRRIKLGFTQADVGLAVGTLYGNVFSQTTICRFEALQLSFKNMCKLKPLLNKWLEETDSSS [L34V] as the variant, how does the abundance fitness read?
Answer: -0.464 ± 0.089

Question: For EDAPSSDDLEQFAKQFKQRRIKLGFTQADVGLARGTLYGNVFSQTTICRFEALQLSFKNMCKLKPLLNKWLEETDSSS [L34R], which abundance fitness is on record?
Answer: -0.844 ± 0.12

Question: Which abundance fitness does the source give for EDAPSSDDLEQFAKQFKQRRIKLGFTQADVGLAMGTLYGNVFSQTTICRFEALQLSFKNMCKLKPLLNKWLEETDSSS [L34M] here?
Answer: -0.158 ± 0.15

Question: Which abundance fitness does the source give for EDAPSSDDLEQFAKQFKQRRIKLGFTQADVGLACGTLYGNVFSQTTICRFEALQLSFKNMCKLKPLLNKWLEETDSSS [L34C] here?
Answer: -0.397 ± 0.18

Question: With EDAPSSDDLEQFAKQFKQRRIKLGFTQADVGLAPGTLYGNVFSQTTICRFEALQLSFKNMCKLKPLLNKWLEETDSSS [L34P] as the variant, how does the abundance fitness read?
Answer: -0.772 ± 0.28

Question: Which abundance fitness does the source give for EDAPSSDDLEQFAKQFKQRRIKLGFTQADVGLASGTLYGNVFSQTTICRFEALQLSFKNMCKLKPLLNKWLEETDSSS [L34S] here?
Answer: -0.859 ± 0.2

Question: Which abundance fitness does the source give for EDAPSSDDLEQFAKQFKQRRIKLGFTQADVGLAAGTLYGNVFSQTTICRFEALQLSFKNMCKLKPLLNKWLEETDSSS [L34A] here?
Answer: -0.42 ± 0.12

Question: Which abundance fitness does the source give for EDAPSSDDLEQFAKQFKQRRIKLGFTQADVGLAFGTLYGNVFSQTTICRFEALQLSFKNMCKLKPLLNKWLEETDSSS [L34F] here?
Answer: -0.408 ± 0.19

Question: For EDAPSSDDLEQFAKQFKQRRIKLGFTQADVGLAIGTLYGNVFSQTTICRFEALQLSFKNMCKLKPLLNKWLEETDSSS [L34I], which abundance fitness is on record?
Answer: -0.536 ± 0.27

Question: Which abundance fitness does the source give for EDAPSSDDLEQFAKQFKQRRIKLGFTQADVGLATGTLYGNVFSQTTICRFEALQLSFKNMCKLKPLLNKWLEETDSSS [L34T] here?
Answer: -0.311 ± 0.18

Question: With EDAPSSDDLEQFAKQFKQRRIKLGFTQADVGLALATLYGNVFSQTTICRFEALQLSFKNMCKLKPLLNKWLEETDSSS [G35A] as the variant, how does the abundance fitness read?
Answer: -0.097 ± 0.067

Question: For EDAPSSDDLEQFAKQFKQRRIKLGFTQADVGLALWTLYGNVFSQTTICRFEALQLSFKNMCKLKPLLNKWLEETDSSS [G35W], which abundance fitness is on record?
Answer: -0.439 ± 0.092

Question: With EDAPSSDDLEQFAKQFKQRRIKLGFTQADVGLALYTLYGNVFSQTTICRFEALQLSFKNMCKLKPLLNKWLEETDSSS [G35Y] as the variant, how does the abundance fitness read?
Answer: -0.313 ± 0.31

Question: Which abundance fitness does the source give for EDAPSSDDLEQFAKQFKQRRIKLGFTQADVGLALQTLYGNVFSQTTICRFEALQLSFKNMCKLKPLLNKWLEETDSSS [G35Q] here?
Answer: -0.125 ± 0.1

Question: With EDAPSSDDLEQFAKQFKQRRIKLGFTQADVGLALHTLYGNVFSQTTICRFEALQLSFKNMCKLKPLLNKWLEETDSSS [G35H] as the variant, how does the abundance fitness read?
Answer: -0.37 ± 0.24

Question: Which abundance fitness does the source give for EDAPSSDDLEQFAKQFKQRRIKLGFTQADVGLALSTLYGNVFSQTTICRFEALQLSFKNMCKLKPLLNKWLEETDSSS [G35S] here?
Answer: 0.064 ± 0.062

Question: For EDAPSSDDLEQFAKQFKQRRIKLGFTQADVGLALPTLYGNVFSQTTICRFEALQLSFKNMCKLKPLLNKWLEETDSSS [G35P], which abundance fitness is on record?
Answer: -1.13 ± 0.31

Question: With EDAPSSDDLEQFAKQFKQRRIKLGFTQADVGLALDTLYGNVFSQTTICRFEALQLSFKNMCKLKPLLNKWLEETDSSS [G35D] as the variant, how does the abundance fitness read?
Answer: -0.571 ± 0.22

Question: For EDAPSSDDLEQFAKQFKQRRIKLGFTQADVGLALTTLYGNVFSQTTICRFEALQLSFKNMCKLKPLLNKWLEETDSSS [G35T], which abundance fitness is on record?
Answer: 0.236 ± 0.085

Question: For EDAPSSDDLEQFAKQFKQRRIKLGFTQADVGLALMTLYGNVFSQTTICRFEALQLSFKNMCKLKPLLNKWLEETDSSS [G35M], which abundance fitness is on record?
Answer: -0.4 ± 0.12

Question: Which abundance fitness does the source give for EDAPSSDDLEQFAKQFKQRRIKLGFTQADVGLALCTLYGNVFSQTTICRFEALQLSFKNMCKLKPLLNKWLEETDSSS [G35C] here?
Answer: -0.299 ± 0.12

Question: With EDAPSSDDLEQFAKQFKQRRIKLGFTQADVGLALFTLYGNVFSQTTICRFEALQLSFKNMCKLKPLLNKWLEETDSSS [G35F] as the variant, how does the abundance fitness read?
Answer: -0.211 ± 0.19

Question: For EDAPSSDDLEQFAKQFKQRRIKLGFTQADVGLALVTLYGNVFSQTTICRFEALQLSFKNMCKLKPLLNKWLEETDSSS [G35V], which abundance fitness is on record?
Answer: -0.641 ± 0.099

Question: With EDAPSSDDLEQFAKQFKQRRIKLGFTQADVGLALKTLYGNVFSQTTICRFEALQLSFKNMCKLKPLLNKWLEETDSSS [G35K] as the variant, how does the abundance fitness read?
Answer: -0.125 ± 0.12

Question: For EDAPSSDDLEQFAKQFKQRRIKLGFTQADVGLALRTLYGNVFSQTTICRFEALQLSFKNMCKLKPLLNKWLEETDSSS [G35R], which abundance fitness is on record?
Answer: 0.005 ± 0.048

Question: With EDAPSSDDLEQFAKQFKQRRIKLGFTQADVGLALGTCYGNVFSQTTICRFEALQLSFKNMCKLKPLLNKWLEETDSSS [L37C] as the variant, how does the abundance fitness read?
Answer: 0.206 ± 0.12

Question: For EDAPSSDDLEQFAKQFKQRRIKLGFTQADVGWALGTLYGNVFSQTTICRFEALQLSFKNMCKLKPLLNKWLEETDSSS [L32W], which abundance fitness is on record?
Answer: -0.185 ± 0.081

Question: With EDAPSSDDLEQFAKQFKQRRIKLGFTQADVGVALGTLYGNVFSQTTICRFEALQLSFKNMCKLKPLLNKWLEETDSSS [L32V] as the variant, how does the abundance fitness read?
Answer: -0.183 ± 0.071

Question: For EDAPSSDDLEQFAKQFKQRRIKLGFTQADVGSALGTLYGNVFSQTTICRFEALQLSFKNMCKLKPLLNKWLEETDSSS [L32S], which abundance fitness is on record?
Answer: 0.152 ± 0.056

Question: With EDAPSSDDLEQFAKQFKQRRIKLGFTQADVGQALGTLYGNVFSQTTICRFEALQLSFKNMCKLKPLLNKWLEETDSSS [L32Q] as the variant, how does the abundance fitness read?
Answer: 0.148 ± 0.061

Question: Which abundance fitness does the source give for EDAPSSDDLEQFAKQFKQRRIKLGFTQADVGYALGTLYGNVFSQTTICRFEALQLSFKNMCKLKPLLNKWLEETDSSS [L32Y] here?
Answer: -0.148 ± 0.19

Question: With EDAPSSDDLEQFAKQFKQRRIKLGFTQADVGRALGTLYGNVFSQTTICRFEALQLSFKNMCKLKPLLNKWLEETDSSS [L32R] as the variant, how does the abundance fitness read?
Answer: 0.122 ± 0.041
